According to PMC3206016, “Putting into Practice Domain-Linear Motif Interaction Predictions for Exploration of Protein Networks” (PLoS ONE, 2011):
Values joined by “and” are separate entries in the source; they are usually repeats but may differ in a detail not shown here. Equal entries are not always repeated. Ends that are not written are not given here. * marks the point of attachment. Biotin = O=C1N[C@H]2[C@H](CS[C@H]2CCCCC(=O)*)N1

B1: TTC24_10 (long peptide of Tetratricopeptide repeat protein 24: the last ten residues) (peptide)
peptide: Biotin-PMESGICTIV
notes: also called TTC24 long; source: synthetic peptide (JPT Peptide Technologies)
B2: TANC1_10 (long peptide of Tetratricopeptide repeat, ankyrin repeat and coiled-coil domain-containing protein 1: the last ten residues) (peptide)
peptide: Biotin-PKRSFIESNV
notes: also called TANC1 long; source: synthetic peptide (JPT Peptide Technologies)
B3: 16E6 (long peptide of HPV16 early protein E6: the last ten residues) (peptide)
peptide: Biotin-SSRTRRETQL
notes: source: synthetic peptide (JPT Peptide Technologies)
B4: TAX1_10 (long peptide of the Trans-activating transcriptional regulatory protein of HTLV-1: the last ten residues) (peptide)
peptide: Biotin-SEKHFRETEV
notes: also called TAX1 long; HTLV1 Tax1; source: synthetic peptide (JPT Peptide Technologies)

Key:
Test in all cases: SPR
Conditions in all cases: both partners purified
[1] = molecular target: T1, MAGI1-3/6 (MBP fusion of the third of the six PDZ domains of MAGI1) (mouse, UniProt Q6RHR9-1 613-752)
T1 construct: source: E. coli BL21 DE3, purified (amylose column, Superdex 75 gel filtration)
T1 sequence (Q6RHR9 613-752): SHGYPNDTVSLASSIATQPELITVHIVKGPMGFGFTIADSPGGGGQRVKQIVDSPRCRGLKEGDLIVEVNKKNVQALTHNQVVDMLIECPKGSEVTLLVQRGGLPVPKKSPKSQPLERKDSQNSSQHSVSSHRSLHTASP

[2] = molecular target: T2, SCRIB-3/4 (MBP fusion of the third of the four PDZ domains of SCRIB) (human, UniProt Q14160-1 997-1093)
T2 construct: also called MBP-PDZ analyte SCRIB-3/4; source: E. coli BL21 DE3, purified (amylose column, Superdex 75 gel filtration)
T2 sequence (looked up): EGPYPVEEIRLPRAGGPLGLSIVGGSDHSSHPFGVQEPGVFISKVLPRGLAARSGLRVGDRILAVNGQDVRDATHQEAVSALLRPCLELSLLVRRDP

[3] = molecular target: T3, SCRIB-34/4 (MBP fusion of the tandem of the third and fourth PDZ domains of SCRIB) (human, UniProt Q14160-1 997-1193)
T3 construct: also called MBP-PDZ analyte SCRIB-34/4; tandem PDZ construct; source: E. coli BL21 DE3, purified (amylose column, Superdex 75 gel filtration)
T3 sequence (looked up): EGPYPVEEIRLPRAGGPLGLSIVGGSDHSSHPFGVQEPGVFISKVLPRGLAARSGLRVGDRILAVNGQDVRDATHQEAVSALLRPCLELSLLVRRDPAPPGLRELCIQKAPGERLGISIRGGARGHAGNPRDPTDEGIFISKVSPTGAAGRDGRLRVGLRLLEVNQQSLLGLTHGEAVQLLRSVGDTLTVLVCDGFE

[4] = molecular target: T4, MAGI1-2/6 (MBP fusion of the second of the six PDZ domains of MAGI1) (mouse, UniProt Q6RHR9-1 448-572)
T4 construct: source: E. coli BL21 DE3, purified (amylose column, Superdex 75 gel filtration)
T4 sequence (Q6RHR9 448-572): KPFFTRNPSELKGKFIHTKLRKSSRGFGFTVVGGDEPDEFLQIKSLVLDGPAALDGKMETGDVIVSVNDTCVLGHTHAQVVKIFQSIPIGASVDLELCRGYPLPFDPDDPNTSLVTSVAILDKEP

[5] = molecular target: T2, SCRIB-3/4 (MBP fusion of the third of …); remark: listed apart in the source
[6] = molecular target: T3, SCRIB-34/4 (MBP fusion of the tandem of …); remark: listed apart in the source
[7] = molecular target: T2, SCRIB-3/4 (MBP fusion of the third of …); remark: listed apart in the source
[8] = molecular target: T3, SCRIB-34/4 (MBP fusion of the tandem of …); remark: listed apart in the source
[9] = molecular target: T1, MAGI1-3/6 (MBP fusion of the third of …); remark: listed apart in the source
[10] = molecular target: T5, SCRIB-4/4 (MBP fusion of the fourth of the four PDZ domains of SCRIB) (human, UniProt Q14160-1 1097-1193)
T5 construct: also called MBP-PDZ analyte SCRIB-4/4; source: E. coli BL21 DE3, purified (amylose column, Superdex 75 gel filtration)
T5 sequence (looked up): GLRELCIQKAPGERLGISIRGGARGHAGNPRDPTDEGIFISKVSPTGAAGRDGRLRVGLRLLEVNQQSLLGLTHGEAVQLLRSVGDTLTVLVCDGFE

Binder | Kd [1] [µM] | Kd [2] [µM] | Kd [3] [µM] | Kd [4] | Kd [5] [µM] | Kd [6] [µM] | Kd [7] [µM] | Kd [8] [µM] | Kd [9] [µM] | Kd [10] [µM]
B1 | 37 | 117 | 49 |  |  |  |  |  |  | 
B2 |  |  |  | 287 µM | 39 | 2 |  |  |  | 
B3 |  |  |  | 3 µM and 9 µM | 18 | 3 | 15 | 3 |  | 
B4 |  |  |  | 53 µM | 29 |  |  |  | 1230 | 48
